Assays:
[1] = test system: dorsal root ganglion (DRG) neurons; assay: DRG axonal outgrowth and turning under slit-2 gradient after 5-FU treatment; type: cell-based, mice
Experimental: (§1) Primary hippocampal neurons and dorsal root ganglion (DRG) neurons cultured in the devices were obtained from embryonic day 14.5-16.5 mice as per protocols described in detail elsewhere (R. Li, Methods. Cell. Biol., 1998, 57, 167; W. E. Thomas, Life. Sci., 1986, 38, 297; A. V. Kwiatkowski, et al., Neuron, 2007, 56, 441). Cells from micro-dissected cortices were dissociated and resuspended in serum-free media at a final concentration of 10 million cells/mL. The neurons were seeded into the devices (n=10 devices per test condition) immediately after dissociation and cultured for 1-2 days, with serum-free media replaced in all the channels twice a day, before any guidance cue was introduced. All cell cultures were maintained in a humidified incubator at 5% CO2 and 37° C. For netrin-1 studies (FIGS. 11A-11C), hippocampal neurons were transfected using amaxa nucleofection, with a pmax-gfp plasmid cotransfected with a plasmid expressing DCC (deleted in colorectal cancer) receptor (M. J. Galko and M. Tessier-Lavigne, Science, 2000, 289, 1365).
(§2) Netrin-1 added in the channel was obtained from multiple sources: lab-isolated (T. Serafini, et al., Cell, 1994, 78, 409) netrin-1 (0.1-10 μg/mL), and netrin-1 released from cDNA transfected stable fibroblast cell line (K. Löw, et al., J. Neurosci., 2008, 28, 1099). […] Brain pulp was prepared in the lab from fresh whole mouse brain tissues. Briefly, the brain tissue was homogenized with a rotor stator in a hypotonic solution supplemented with protease inhibitors (protease inhibitor cocktail; Roche, USA), filtered, total protein content measured using a Bradford protein assay, and diluted to […] concentration. […]
(§3) Phase-contrast, fluorescence and confocal microscopy were used to characterize axonal distribution and quantify axonal turning in 3D collagen gels within the devices. […] The last 100 μm segment along the length of each axon leading to the growth cone was traced with NeuronJ (E. Meijering, et al., Cytometry. Part. A, 2004, 58, 167), and the angle this segment makes with the horizontal line (0°) was measured. […]

[2] = test system: Human Lung Cancer Cell Line A549 aggregates; assay: A549 cancer aggregate break-up/migration in collagen gel with HUVEC monolayer, high throughput microfluidic device; type: cell-based
Experimental: Red colure cells are from Human Lung Cancer Cell Line A549 were transfected with H2B protein (m-Cherry), and partially disassociated, yielding cell aggregates of random sizes, between 40 um and 70 um. This was aspirated through a 100 micrometer strainer, yielding a media with cell aggregates with radii under 100 micrometers. This was poured through a second 40-micrometer filter, yielding a media with A549 aggregates between 40 and 100 micrometers. The cells were then centrifuged at 800 rpm for 2 minutes, and the media aspirated.
Collagen gel was prepared by adding 9 microliters of 1 M NaOH to 20 microliters of Phosphate Buffered Solution (BD Bioscience), and then adding 46 microliters of ultrapure H2O. Finally, 125 microliters of Type I Rat Tail Collagen at 2.5 mg/mL (BD Biosciences) were added, and mixed thoroughly.
The A549 aggregates were then mixed with the collagen gel, yielding a mixture of aggregates within the gel. Ten microliters of the gel were then injected into the center channel of the device shown in FIGS. 1 and 2, yielding 36 distinct gel-fluid interfaces within the device.
Human Umbilical Vein Endothelial Cells were transfected by GFP protein label disassociated, and flowed into the first media channel. Media without cells was added to the second channel. Adding a small bubble of media on each port of the first media channel yielded a hydrostatic pressure gradient, pushing cells to the gel-media interfaces. The pressure gradient was maintained for one hour, before the bubbles were removed. The device was cultured, and imaged at 0, 12, 36, 60, 84, and 108 hours. The endothelial cells were seen to create an endothelial monolayer along the bottom of the media channel, as well as on the gel-media interface.
In the control group, no drugs were added to the system. In the experimental group, the commercial cancer anti-metastatic drug Iressa (AstraZeneca), an EGFR-TK enzyme blocker, was added to the endothelial cell medium in doses of 100 nM, 500 nM, 1000 nM, 1500 nM, and 2000 nM. […]

[3] = test system: dorsal root ganglion (DRG) neurons; assay: DRG neuron migration into 3D collagen scaffold under slit-2 gradient; type: cell-based, mice; settings: slit-2 250 ng/mL
Experimental: as §1, §2, §3

hippocampal neurons = assay: Hippocampal axonal turning under guidance cue gradient in 3D collagen gel, spider microfluidic device; type: cell-based, mice
Experimental: as §1
Netrin-1 added in the channel was obtained from multiple sources: lab-isolated (T. Serafini, et al., Cell, 1994, 78, 409) netrin-1 (0.1-10 μg/mL), and netrin-1 released from cDNA transfected stable fibroblast cell line (K. Löw, et al., J. Neurosci., 2008, 28, 1099). […] Brain pulp was prepared in the lab from fresh whole mouse brain tissues. Briefly, the brain tissue was homogenized with a rotor stator in a hypotonic solution supplemented with protease inhibitors (protease inhibitor cocktail; Roche, USA), filtered, total protein content measured using a Bradford protein assay, and diluted to […] concentration. The chemorepellant used was Slit-2 (62.5 or 250 ng/mL; R&D Systems, Minneapolis, Minn.)). For chemosensing studies, the medium was removed from all the ports after 24-48 h of cell seeding, and 350 μL medium containing known concentration of guidance cue was introduced in the chemoattractant channel, and 350 μL serum-free media in each of the remaining two channels. For the experiments with netrin-1 being released from fibroblasts, transfected fibroblasts (1×10^5 cells) were seeded in the chemoattractant channel (source), and normal fibroblasts (non-transfected, 1×10^5 cells) were seeded in the left channel (sink). […] Netrin-1 released from the transfected fibroblasts diffuses across the collagen-1 gel and creates a gradient. The medium was changed at regular intervals to maintain chemogradient at all times. The control devices which received no guidance cues were cultured in the same procedure as with test cases.
as §3, with “devices. Florescent and phase contrast images were acquired with a Nikon TE300 microscope equipped with a Hamamatsu camera and Openlab image acquisition software. Axonal and nuclei staining were performed after fixation with 4% PFA (30 min).” for “devices.”

[4] = slit-2 250 ng/mL in the right channel, n=64 axons

O=c1[nH]cc(F)c(=O)[nH]1 [5-FU, 5-fluorourasil, reference compound]
DRG cell migration into the scaffold ([1]; 5-FU 10^−5 M seeded with DRG explants on day 0, 24 h culture): no cell migration into the scaffold was observed

COc1cc2ncnc(Nc3ccc(F)c(Cl)c3)c2cc1OCCCN1CCOCC1 [Iressa]
behaviour of A549 cancer aggregates ([2]; 100 nM and 500 nM drug concentrations): cancer aggregates were seen to break up
behaviour of A549 cancer aggregates ([2]; 1000 nM, 1500 nM and 2000 nM drug concentrations): the cancer aggregates stayed intact
minimum effective dose ([2]; drug in endothelial cell medium, keeps A549 aggregates intact): 1000 nM

B1: slit-2: chemorepellant guidance cue Slit-2 (R&D Systems) (protein, UniProt O94813 31-1529, looked up)
Slit homolog 2 protein: QCSCSGSTVDCHGLALRSVPRNIPRNTERLDLNGNNITRITKTDFAGLRHLRVLQLMENKISTIERGAFQDLKELERLRLNRNHLQLFPELLFLGTAKLYRLDLSENQIQAIPRKAFRGAVDIKNLQLDYNQISCIEDGAFRALRDLEVLTLNNNNITRLSVASFNHMPKLRTFRLHSNNLYCDCHLAWLSDWLRQRPRVGLYTQCMGPSHLRGHNVAEVQKREFVCSGHQSFMAPSCSVLHCPAACTCSNNIVDCRGKGLTEIPTNLPETITEIRLEQNTIKVIPPGAFSPYKKLRRIDLSNNQISELAPDAFQGLRSLNSLVLYGNKITELPKSLFEGLFSLQLLLLNANKINCLRVDAFQDLHNLNLLSLYDNKLQTIAKGTFSPLRAIQTMHLAQNPFICDCHLKWLADYLHTNPIETSGARCTSPRRLANKRIGQIKSKKFRCSAKEQYFIPGTEDYRSKLSGDCFADLACPEKCRCEGTTVDCSNQKLNKIPEHIPQYTAELRLNNNEFTVLEATGIFKKLPQLRKINFSNNKITDIEEGAFEGASGVNEILLTSNRLENVQHKMFKGLESLKTLMLRSNRITCVGNDSFIGLSSVRLLSLYDNQITTVAPGAFDTLHSLSTLNLLANPFNCNCYLAWLGEWLRKKRIVTGNPRCQKPYFLKEIPIQDVAIQDFTCDDGNDDNSCSPLSRCPTECTCLDTVVRCSNKGLKVLPKGIPRDVTELYLDGNQFTLVPKELSNYKHLTLIDLSNNRISTLSNQSFSNMTQLLTLILSYNRLRCIPPRTFDGLKSLRLLSLHGNDISVVPEGAFNDLSALSHLAIGANPLYCDCNMQWLSDWVKSEYKEPGIARCAGPGEMADKLLLTTPSKKFTCQGPVDVNILAKCNPCLSNPCKNDGTCNSDPVDFYRCTCPYGFKGQDCDVPIHACISNPCKHGGTCHLKEGEEDGFWCICADGFEGENCEVNVDDCEDNDCENNSTCVDGINNYTCLCPPEYTGELCEEKLDFCAQDLNPCQHDSKCILTPKGFKCDCTPGYVGEHCDIDFDDCQDNKCKNGAHCTDAVNGYTCICPEGYSGLFCEFSPPMVLPRTSPCDNFDCQNGAQCIVRINEPICQCLPGYQGEKCEKLVSVNFINKESYLQIPSAKVRPQTNITLQIATDEDSGILLYKGDKDHIAVELYRGRVRASYDTGSHPASAIYSVETINDGNFHIVELLALDQSLSLSVDGGNPKIITNLSKQSTLNFDSPLYVGGMPGKSNVASLRQAPGQNGTSFHGCIRNLYINSELQDFQKVPMQTGILPGCEPCHKKVCAHGTCQPSSQAGFTCECQEGWMGPLCDQRTNDPCLGNKCVHGTCLPINAFSYSCKCLEGHGGVLCDEEEDLFNPCQAIKCKHGKCRLSGLGQPYCECSSGYTGDSCDREISCRGERIRDYYQKQQGYAACQTTKKVSRLECRGGCAGGQCCGPLRSKRRKYSFECTDGSSFVDEVEKVVKCGCTRCVS
percentage of DRG axons repelled ([1]; slit-2 250 ng/mL in right hand channel after 24 h 5-FU, p<0.03 vs. controls): 70±14.2%
inhibition of DRG neuron axonal turning into Q1 relative to control cultures ([1]; slit-2 250 ng/mL, p<0.05 vs. controls): 56%
DRG neuron migration down the gradient, percentage in Q3 [3]: 74±12.5%
increase in DRG neuron migration down the gradient relative to controls ([3]; p<0.001 vs. controls): 5 fold
increase in DRG neuron migration down the gradient relative to 62.5 ng/mL slit-2 gradient ([3]; p<0.01): 2.7 fold
percentage of axons that turned away from the high concentration, 250 ng/mL versus 62.5 ng/mL (hippocampal neurons; increasing slit-2 from 62.5 ng/mL to 250 ng/mL, p<0.001): tripled
chemorepellent effect on hippocampal axonal turning (hippocampal neurons; slit-2 62.5 ng/mL, n=51 axons): did not exhibit similar strong repellent characteristics
percentage of axons in Q1 (towards guidance cue) (hippocampal neurons; [4]): 18.2±4.5%
percentage of axons in Q3 (away from guidance cue) (hippocampal neurons; [4]): 42.6±9.1%
enhancement of axonal turning down the gradient relative to controls which received no cues (hippocampal neurons; slit-2 250 ng/mL, p<0.001): 3.4 fold

From US20140057311A1, “Device For High Throughput Investigations Of Multi-Cellular Interactions” (priority 2010, published 2014)
